For assay [1], the target named is S. cerevisiae Smc1 hinge protein (S480-E681), wild type (S. cerevisiae) (UniProt P32908). Kind of assay: ITC.
Assay [2] has as its target S. cerevisiae Smc1DD hinge protein (S480-E681; K554D, K661D) (S. cerevisiae) (UniProt P32908). Kind of assay: ITC.
Assay [3] concerns the target S. cerevisiae Smc3-FLAG hinge protein (S. cerevisiae). Briefly: pull-down.

As to “S. cerevisiae Smc3 hinge protein (T495-L695), wild type (domain or fragment)”, the equilibrium dissociation constant (Kd) in assay [1] was determined as 22 nM.

Take “S. cerevisiae Smc3AAA hinge protein (T495-L695; R665A, K668A, R669A) (domain or fragment)”: the values for the Kd in assay [1] and in assay [2] were 24 nM and 29 nM, respectively. The same molecule gave a reduction in dH against wild-type Smc1/Smc3 in assay [2] of 4 kcal/mol.

B1: S. cerevisiae Smc1 hinge protein (S480-E681), wild type (domain or fragment)
chain: SANNQEYDLNFKLRETLVKIDDLSANQRETMKERKLRENIAMLKRFFPGVKGLVHDLCHPKKEKYGLAVSTILGKNFDSVIVENLTVAQECIAFLKKQRAGTASFIPLDTIETELPTLSLPDSQDYILSINAIDYEPEYEKAMQYVCGDSIICNTLNIAKDLKWKKGIRGKLVTIEGALIHKAGLMTGGISGDANNRWDKEE
In assay [3], B1 had a half time of 30 min and a half-life of the hinge dimer of 15 to 30 min.

For the origin of these results see publication PMC3025461.
